For test [1], the target named is T1, Recombinant human PD-1-Fc (human, UniProt Q15116 25-167, limits assumed).
T1 construct: also called recombinant human PD-1-Fc protein; not shown: Fc part
The test can be described thus: competition ELISA, PD-1-Fc coated, competitor biotin-labeled PD-L1. On the procedure: Recombinant human PD-1-Fc was coated on a 96-well high-absorbing ELISA plate with a carbonate buffer solution with pH 9.6, the coating concentration was 1 μg/mL, the coating amount was 100 μL per well, and the coating was carried at 4° C. out overnight. The plate was washed five times with PBST and blocked with 300 μL/well of PBST containing 1% BSA and incubated at 25° C. for 1 hour. The plate was washed five times with PBST. The positive control and the anti-human PD-1 antibody sample were added, 50 μL per well. […] The plate was washed five times with PBST. Then, Streptavidin-HRP (BD Pharmingen, Catalog Number 554066) 1:1000 diluted in PBST containing 1% BSA was added, 100 μL per well, incubated at 25° C. for 1 hour. The plate was washed five times with PBST. 100 μL/well of colorimetric substrate TMB was added and incubated at room temperature for 10 minutes. Color development was terminated by adding 100 μL/well of 1 M H₂SO₄. The absorbance at 450 nm was read on a microplate reader.
Background: In an ELISA, binding on a coated surface is turned into a signal by an enzyme label.

Test [2] addresses T2, Recombinant human PD-1 (Sino Biological Inc., Catalog Number 10377-H08H) (human, UniProt Q15116 25-167).
T2 construct: Bought protein; also called antigen PD-1
Nature of the test: ELISA, human PD-1 coated. On the procedure:
Recombinant human PD-1 (purchased from Sino Biological Inc.) was coated on a 96-well high-absorbing ELISA plate with a carbonate buffer solution with pH 9.6, the coating concentration was 1 μg/mL, the coating amount was 100 μL per well, and the coating was carried out at 4° C. overnight. The plate was washed five times with PBST and blocked with 300 μL/well of PBST containing 1% BSA, and then incubated at 25° C. for 1 hour. The plate was washed five times with PBST. […] The plate was washed five times with PBST. Then, horseradish peroxidase-labeled anti-human IgG antibody (Chemicon, Catalog Number AP309P) 1:2000 diluted in PBST containing 1% BSA was added, 100 μL per well, incubated at 25° C. for 1 hour. The plate was washed five times with PBST. 100 μL/well of colorimetric substrate TMB was added and incubated at room temperature for 10 minutes. Color development was terminated by adding 100 μL/well of 1 M H₂SO₄. The absorbance at 450 nm was read on a microplate reader.

T2 sequence (Q15116 25-167 limits assumed): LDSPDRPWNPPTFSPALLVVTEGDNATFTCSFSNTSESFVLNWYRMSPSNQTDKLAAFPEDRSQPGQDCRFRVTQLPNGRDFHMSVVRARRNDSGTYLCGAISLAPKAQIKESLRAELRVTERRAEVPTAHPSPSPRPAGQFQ
T1 sequence (Q15116 25-167 limits assumed): as above

B1: AH00291 (antibody, human IgG4 S228P, kappa)
heavy: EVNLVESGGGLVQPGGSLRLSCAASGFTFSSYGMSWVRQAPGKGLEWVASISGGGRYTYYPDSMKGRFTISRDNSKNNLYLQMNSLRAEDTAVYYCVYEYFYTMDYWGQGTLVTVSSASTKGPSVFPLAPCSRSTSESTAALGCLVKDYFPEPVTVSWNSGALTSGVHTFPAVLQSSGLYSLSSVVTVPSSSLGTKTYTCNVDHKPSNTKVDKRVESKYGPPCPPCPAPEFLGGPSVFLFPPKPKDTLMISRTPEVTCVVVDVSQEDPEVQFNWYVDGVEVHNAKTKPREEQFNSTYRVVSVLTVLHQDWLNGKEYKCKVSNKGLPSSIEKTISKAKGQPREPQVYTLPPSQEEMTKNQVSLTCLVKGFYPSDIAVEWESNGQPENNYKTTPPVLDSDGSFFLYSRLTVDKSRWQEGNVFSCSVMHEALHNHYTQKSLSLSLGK
light: DIVLTQSPATLSLSPGERATLSCRANQSISNNLHWYQQKPGQAPRLLIRFASQSISGIPARFSGSGSGTDFTLTISSLEPEDFAVYFCQQSDNWPLTFGGGTKVEIKRTVAAPSVFIFPPSDEQLKSGTASVVCLLNNFYPREAKVQWKVDNALQSGNSQESVTEQDSKDSTYSLSSTLTLSKADYEKHKVYACEVTHQGLSSPVTKSFNRGEC
notes: also called humanized anti-human PD-1 monoclonal antibody AH00291
For the molecule B1, the IC50 (in general, the concentration at which inhibition is half-maximal) in test [1] was 1.1 nM. The EC50 (as a rule, the concentration at which the effect is half-maximal) in test [2] is 0.025 nM.

B2: AH00298 (antibody, human IgG4 S228P, kappa)
heavy: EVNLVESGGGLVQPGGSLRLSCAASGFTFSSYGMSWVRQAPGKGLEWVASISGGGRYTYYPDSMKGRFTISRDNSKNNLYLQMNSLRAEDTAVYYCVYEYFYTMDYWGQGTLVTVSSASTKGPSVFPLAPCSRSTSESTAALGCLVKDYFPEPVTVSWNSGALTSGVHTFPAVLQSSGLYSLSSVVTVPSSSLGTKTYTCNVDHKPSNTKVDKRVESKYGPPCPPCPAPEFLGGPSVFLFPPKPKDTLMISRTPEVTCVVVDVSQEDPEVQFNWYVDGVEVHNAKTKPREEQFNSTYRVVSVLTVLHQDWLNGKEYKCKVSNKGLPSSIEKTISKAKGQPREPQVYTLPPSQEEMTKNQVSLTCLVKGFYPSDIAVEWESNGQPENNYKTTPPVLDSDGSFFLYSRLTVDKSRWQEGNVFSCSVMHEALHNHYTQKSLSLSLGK
light: EVVLTQSPATLSLSPGERATLSCRANQSISNNLHWYQQKPGQAPRLLIRFASQSISGIPARFSGSGSGTDFTLTISSLEPEDFAVYFCQQSDNWPLTFGGGTKVEIKRTVAAPSVFIFPPSDEQLKSGTASVVCLLNNFYPREAKVQWKVDNALQSGNSQESVTEQDSKDSTYSLSSTLTLSKADYEKHKVYACEVTHQGLSSPVTKSFNRGEC
notes: also called humanized anti-human PD-1 monoclonal antibody AH00298
As to B2, in test [1], the IC50 amounted to 1.22 nM. The EC50 in test [2] was found to be 0.028 nM.

B3: AH00295 (antibody, human IgG4 S228P, kappa)
heavy: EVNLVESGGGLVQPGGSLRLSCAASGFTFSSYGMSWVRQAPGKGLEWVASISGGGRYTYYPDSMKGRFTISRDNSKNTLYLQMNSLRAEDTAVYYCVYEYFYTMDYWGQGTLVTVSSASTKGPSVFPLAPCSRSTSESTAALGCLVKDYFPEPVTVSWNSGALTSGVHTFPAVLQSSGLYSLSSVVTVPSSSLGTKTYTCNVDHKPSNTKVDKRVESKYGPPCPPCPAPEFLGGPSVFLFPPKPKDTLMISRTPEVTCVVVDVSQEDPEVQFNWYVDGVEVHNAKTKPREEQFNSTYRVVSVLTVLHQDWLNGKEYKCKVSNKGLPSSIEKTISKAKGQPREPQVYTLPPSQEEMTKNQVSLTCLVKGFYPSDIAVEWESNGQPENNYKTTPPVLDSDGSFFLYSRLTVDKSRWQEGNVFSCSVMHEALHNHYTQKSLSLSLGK
light: EVVLTQSPATLSLSPGERATLSCRANQSISNNLHWYQQKPGQAPRLLIRFASQSISGIPARFSGSGSGTDFTLTISSLEPEDFAVYFCQQSDNWPLTFGGGTKVEIKRTVAAPSVFIFPPSDEQLKSGTASVVCLLNNFYPREAKVQWKVDNALQSGNSQESVTEQDSKDSTYSLSSTLTLSKADYEKHKVYACEVTHQGLSSPVTKSFNRGEC
notes: also called humanized anti-human PD-1 monoclonal antibody AH00295
Consider B3, for which the IC50 in test [1] stood at 1.19 nM. Also, in test [2], the EC50 amounted to 0.025 nM.

B4: AH00296-S28A (antibody, human IgG4 S228P, kappa, V domains shown)
VH: EVNLVESGGGLVQPGGSLRLSCAASGFTFSSYGMSWVRQAPGKGLEWVASISGGGRYTYYPDSMKGRFTISRDNSKNTLYLQMNSLRAEDTAVYYCVYEYFYTMDYWGQGTLVTVSS
VL: DIVLTQSPATLSLSPGERATLSCRANQAISNNLHWYQQKPGQAPRLLIRFASQSISGIPARFSGSGSGTDFTLTISSLEPEDFAVYFCQQSDNWPLTFGGGTKVEIKR
As to B4, the IC50 in test [1] turned out to be 1.75 nM. Moreover, the EC50 in test [2] was 0.048 nM.

B5: AH00294-S28A (antibody, human IgG4 S228P, kappa)
heavy: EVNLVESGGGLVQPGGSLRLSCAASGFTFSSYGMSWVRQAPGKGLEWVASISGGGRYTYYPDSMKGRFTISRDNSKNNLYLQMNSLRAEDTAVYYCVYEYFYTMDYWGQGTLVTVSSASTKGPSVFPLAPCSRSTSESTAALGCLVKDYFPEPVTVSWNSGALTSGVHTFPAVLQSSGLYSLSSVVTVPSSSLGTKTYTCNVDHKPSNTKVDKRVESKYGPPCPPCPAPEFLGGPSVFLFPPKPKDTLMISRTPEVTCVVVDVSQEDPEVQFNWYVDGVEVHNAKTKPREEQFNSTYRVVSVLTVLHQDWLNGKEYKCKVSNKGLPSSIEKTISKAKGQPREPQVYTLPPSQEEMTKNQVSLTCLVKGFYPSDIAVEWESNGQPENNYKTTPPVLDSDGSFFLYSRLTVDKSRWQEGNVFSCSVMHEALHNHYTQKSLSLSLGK
light: DVVLTQSPATLSLSPGERATLSCRANQAISNNLHWYQQKPGQAPRLLIRFASQSISGIPARFSGSGSGTDFTLTISSLEPEDFAVYFCQQSDNWPLTFGGGTKVEIKRTVAAPSVFIFPPSDEQLKSGTASVVCLLNNFYPREAKVQWKVDNALQSGNSQESVTEQDSKDSTYSLSSTLTLSKADYEKHKVYACEVTHQGLSSPVTKSFNRGEC
In the case of B5, the IC50 in test [1] was found to be 1.46 nM. In addition, the EC50 in test [2] came out at 0.047 nM.

B6: AH00294 (antibody, human IgG4 S228P, kappa)
heavy: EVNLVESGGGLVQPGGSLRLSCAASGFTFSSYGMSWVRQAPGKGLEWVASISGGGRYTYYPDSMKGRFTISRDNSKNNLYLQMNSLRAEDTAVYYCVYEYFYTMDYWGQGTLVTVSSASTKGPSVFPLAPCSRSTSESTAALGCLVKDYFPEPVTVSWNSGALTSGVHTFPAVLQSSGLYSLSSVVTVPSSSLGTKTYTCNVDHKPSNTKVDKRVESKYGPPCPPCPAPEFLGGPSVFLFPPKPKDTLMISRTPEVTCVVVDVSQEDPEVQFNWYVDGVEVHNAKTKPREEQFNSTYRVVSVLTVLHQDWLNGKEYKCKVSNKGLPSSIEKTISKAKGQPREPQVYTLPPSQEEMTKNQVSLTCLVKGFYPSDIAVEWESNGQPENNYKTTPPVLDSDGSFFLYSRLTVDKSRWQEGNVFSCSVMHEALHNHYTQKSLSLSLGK
light: DVVLTQSPATLSLSPGERATLSCRANQSISNNLHWYQQKPGQAPRLLIRFASQSISGIPARFSGSGSGTDFTLTISSLEPEDFAVYFCQQSDNWPLTFGGGTKVEIKRTVAAPSVFIFPPSDEQLKSGTASVVCLLNNFYPREAKVQWKVDNALQSGNSQESVTEQDSKDSTYSLSSTLTLSKADYEKHKVYACEVTHQGLSSPVTKSFNRGEC
notes: also called humanized anti-human PD-1 monoclonal antibody AH00294
As to B6, the IC50 in test [1] was 1.35 nM. The EC50 in test [2] came to 0.032 nM.

B7: AH00294-N26S (antibody, human IgG4 S228P, kappa)
heavy: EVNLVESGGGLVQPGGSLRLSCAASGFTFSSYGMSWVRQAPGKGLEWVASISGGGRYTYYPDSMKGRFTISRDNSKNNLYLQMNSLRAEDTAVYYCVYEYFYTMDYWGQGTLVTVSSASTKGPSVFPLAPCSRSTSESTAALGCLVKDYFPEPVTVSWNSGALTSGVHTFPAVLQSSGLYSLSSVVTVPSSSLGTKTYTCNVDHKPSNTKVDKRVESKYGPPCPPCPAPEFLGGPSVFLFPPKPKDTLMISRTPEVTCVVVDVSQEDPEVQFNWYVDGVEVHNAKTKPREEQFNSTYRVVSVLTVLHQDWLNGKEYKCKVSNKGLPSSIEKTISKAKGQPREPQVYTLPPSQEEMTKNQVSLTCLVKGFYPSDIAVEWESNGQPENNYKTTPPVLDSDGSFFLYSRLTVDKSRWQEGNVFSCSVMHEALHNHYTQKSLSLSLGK
light: DVVLTQSPATLSLSPGERATLSCRASQSISNNLHWYQQKPGQAPRLLIRFASQSISGIPARFSGSGSGTDFTLTISSLEPEDFAVYFCQQSDNWPLTFGGGTKVEIKRTVAAPSVFIFPPSDEQLKSGTASVVCLLNNFYPREAKVQWKVDNALQSGNSQESVTEQDSKDSTYSLSSTLTLSKADYEKHKVYACEVTHQGLSSPVTKSFNRGEC
Regarding B7, the IC50 in test [1] came out at 1.48 nM. In addition, the EC50 in test [2] is 0.043 nM.

B8: BMIII (antibody, human IgG4 S228P, kappa, V domains shown)
VH: EVNLVESGGGLVQPGGSLRLSCAASGFTFSSYGMSWVRQTPGKGLEWVASISGGGRYTYYPDSMKGRFTISRDNSKNNLYLQMNSLRAEDTAVYYCVYEYFYTMDYWGQGTLVTVSS
VL: DVVLTQSPATLSVSPGERVTLSCRANQSISNNLHWYQQKPGQSPRLLIRFASQSISGIPARFSGSGSGTDFTLTISSVEPEDFGVYFCQQSDNWPLTFGGGTKLEIKR
As to B8, in test [1], the IC50 came to 1.2 nM. The EC50 in test [2] amounted to 0.034 nM.

B9: AH00296-N26Q (antibody, human IgG4 S228P, kappa, V domains shown)
VH: EVNLVESGGGLVQPGGSLRLSCAASGFTFSSYGMSWVRQAPGKGLEWVASISGGGRYTYYPDSMKGRFTISRDNSKNTLYLQMNSLRAEDTAVYYCVYEYFYTMDYWGQGTLVTVSS
VL: DIVLTQSPATLSLSPGERATLSCRAQQSISNNLHWYQQKPGQAPRLLIRFASQSISGIPARFSGSGSGTDFTLTISSLEPEDFAVYFCQQSDNWPLTFGGGTKVEIKR
Take B9: the IC50 in test [1] amounted to 1.27 nM. Also, the EC50 in test [2] came to 0.044 nM.

B10: AH00296 (antibody, human IgG4 S228P, kappa)
heavy: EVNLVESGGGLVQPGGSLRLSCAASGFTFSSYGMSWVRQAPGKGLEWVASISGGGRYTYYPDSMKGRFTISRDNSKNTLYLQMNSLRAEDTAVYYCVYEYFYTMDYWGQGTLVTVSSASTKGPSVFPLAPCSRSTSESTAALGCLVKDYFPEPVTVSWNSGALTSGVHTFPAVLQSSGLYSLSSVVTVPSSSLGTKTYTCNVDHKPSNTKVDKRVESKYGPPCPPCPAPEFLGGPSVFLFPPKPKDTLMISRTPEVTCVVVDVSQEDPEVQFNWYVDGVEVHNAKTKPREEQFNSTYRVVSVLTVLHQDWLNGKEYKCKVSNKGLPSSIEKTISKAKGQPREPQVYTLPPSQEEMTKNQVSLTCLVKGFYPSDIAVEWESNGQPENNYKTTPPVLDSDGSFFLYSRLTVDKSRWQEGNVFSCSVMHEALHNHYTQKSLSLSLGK
light: DIVLTQSPATLSLSPGERATLSCRANQSISNNLHWYQQKPGQAPRLLIRFASQSISGIPARFSGSGSGTDFTLTISSLEPEDFAVYFCQQSDNWPLTFGGGTKVEIKRTVAAPSVFIFPPSDEQLKSGTASVVCLLNNFYPREAKVQWKVDNALQSGNSQESVTEQDSKDSTYSLSSTLTLSKADYEKHKVYACEVTHQGLSSPVTKSFNRGEC
notes: also called humanized anti-human PD-1 monoclonal antibody AH00296
In the case of B10, in test [1], the IC50 was 1.21 nM. For the same molecule, the EC50 in test [2] stood at 0.027 nM.

B11: AH00296-N26S (antibody, human IgG4 S228P, kappa, V domains shown)
VH: EVNLVESGGGLVQPGGSLRLSCAASGFTFSSYGMSWVRQAPGKGLEWVASISGGGRYTYYPDSMKGRFTISRDNSKNTLYLQMNSLRAEDTAVYYCVYEYFYTMDYWGQGTLVTVSS
VL: DIVLTQSPATLSLSPGERATLSCRASQSISNNLHWYQQKPGQAPRLLIRFASQSISGIPARFSGSGSGTDFTLTISSLEPEDFAVYFCQQSDNWPLTFGGGTKVEIKR
notes: also called AII00296-N26S
As for B11, in test [1], the IC50 was found to be 1.07 nM. In addition, the EC50 in test [2] was determined as 0.037 nM.

B12: AH00291-S28A (antibody, human IgG4 S228P, kappa)
heavy: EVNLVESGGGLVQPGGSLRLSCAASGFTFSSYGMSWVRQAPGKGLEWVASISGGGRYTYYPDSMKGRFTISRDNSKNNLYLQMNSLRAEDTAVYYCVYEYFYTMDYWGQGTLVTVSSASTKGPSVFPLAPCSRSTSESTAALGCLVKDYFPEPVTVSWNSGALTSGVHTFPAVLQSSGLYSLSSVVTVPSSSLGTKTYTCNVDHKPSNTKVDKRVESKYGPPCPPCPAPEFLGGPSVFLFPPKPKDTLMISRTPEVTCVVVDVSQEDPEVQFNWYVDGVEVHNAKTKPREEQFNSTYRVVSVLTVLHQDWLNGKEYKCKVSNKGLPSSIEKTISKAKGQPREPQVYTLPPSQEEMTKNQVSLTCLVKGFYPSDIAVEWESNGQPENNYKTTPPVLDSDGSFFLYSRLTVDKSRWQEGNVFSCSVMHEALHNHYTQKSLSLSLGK
light: DIVLTQSPATLSLSPGERATLSCRANQAISNNLHWYQQKPGQAPRLLIRFASQSISGIPARFSGSGSGTDFTLTISSLEPEDFAVYFCQQSDNWPLTFGGGTKVEIKRTVAAPSVFIFPPSDEQLKSGTASVVCLLNNFYPREAKVQWKVDNALQSGNSQESVTEQDSKDSTYSLSSTLTLSKADYEKHKVYACEVTHQGLSSPVTKSFNRGEC
With B12, the IC50 in test [1] is 1.36 nM. Also, in test [2], the EC50 was found to be 0.042 nM.

B13: AH00291-N26Q (antibody, human IgG4 S228P, kappa)
heavy: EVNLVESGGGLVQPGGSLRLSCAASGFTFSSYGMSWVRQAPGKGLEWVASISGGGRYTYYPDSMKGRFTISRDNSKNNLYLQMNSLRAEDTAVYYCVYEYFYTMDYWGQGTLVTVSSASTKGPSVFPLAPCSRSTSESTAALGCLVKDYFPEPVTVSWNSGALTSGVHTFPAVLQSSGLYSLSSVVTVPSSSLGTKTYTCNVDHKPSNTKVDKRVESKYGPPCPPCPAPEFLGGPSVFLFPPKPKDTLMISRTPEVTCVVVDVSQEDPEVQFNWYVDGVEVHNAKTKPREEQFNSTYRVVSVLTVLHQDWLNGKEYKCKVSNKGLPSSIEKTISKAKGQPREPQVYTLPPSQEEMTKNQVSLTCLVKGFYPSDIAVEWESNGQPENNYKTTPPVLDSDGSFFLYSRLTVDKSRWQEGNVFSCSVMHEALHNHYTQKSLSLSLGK
light: DIVLTQSPATLSLSPGERATLSCRAQQSISNNLHWYQQKPGQAPRLLIRFASQSISGIPARFSGSGSGTDFTLTISSLEPEDFAVYFCQQSDNWPLTFGGGTKVEIKRTVAAPSVFIFPPSDEQLKSGTASVVCLLNNFYPREAKVQWKVDNALQSGNSQESVTEQDSKDSTYSLSSTLTLSKADYEKHKVYACEVTHQGLSSPVTKSFNRGEC
With B13, the IC50 in test [1] turned out to be 1.57 nM. Moreover, the EC50 in test [2] stood at 0.046 nM.

B14: AH00294-N26Q (antibody, human IgG4 S228P, kappa)
heavy: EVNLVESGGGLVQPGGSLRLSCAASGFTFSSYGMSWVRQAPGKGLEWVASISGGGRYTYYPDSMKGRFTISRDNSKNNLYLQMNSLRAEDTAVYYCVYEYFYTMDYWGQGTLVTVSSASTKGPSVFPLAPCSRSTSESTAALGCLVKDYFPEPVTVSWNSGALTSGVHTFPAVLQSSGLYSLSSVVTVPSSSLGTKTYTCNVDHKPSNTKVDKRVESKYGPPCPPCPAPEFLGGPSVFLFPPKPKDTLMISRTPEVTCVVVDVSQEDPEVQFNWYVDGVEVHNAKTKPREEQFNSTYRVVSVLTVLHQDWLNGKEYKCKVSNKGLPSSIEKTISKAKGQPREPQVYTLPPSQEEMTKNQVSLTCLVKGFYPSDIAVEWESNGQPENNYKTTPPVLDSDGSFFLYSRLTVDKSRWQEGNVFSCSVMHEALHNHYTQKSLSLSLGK
light: DVVLTQSPATLSLSPGERATLSCRAQQSISNNLHWYQQKPGQAPRLLIRFASQSISGIPARFSGSGSGTDFTLTISSLEPEDFAVYFCQQSDNWPLTFGGGTKVEIKRTVAAPSVFIFPPSDEQLKSGTASVVCLLNNFYPREAKVQWKVDNALQSGNSQESVTEQDSKDSTYSLSSTLTLSKADYEKHKVYACEVTHQGLSSPVTKSFNRGEC
For the molecule B14, in test [1], the IC50 turned out to be 1.49 nM. Also, in test [2], the EC50 was determined as 0.041 nM.

B15: AH00291-N26S (antibody, human IgG4 S228P, kappa)
heavy: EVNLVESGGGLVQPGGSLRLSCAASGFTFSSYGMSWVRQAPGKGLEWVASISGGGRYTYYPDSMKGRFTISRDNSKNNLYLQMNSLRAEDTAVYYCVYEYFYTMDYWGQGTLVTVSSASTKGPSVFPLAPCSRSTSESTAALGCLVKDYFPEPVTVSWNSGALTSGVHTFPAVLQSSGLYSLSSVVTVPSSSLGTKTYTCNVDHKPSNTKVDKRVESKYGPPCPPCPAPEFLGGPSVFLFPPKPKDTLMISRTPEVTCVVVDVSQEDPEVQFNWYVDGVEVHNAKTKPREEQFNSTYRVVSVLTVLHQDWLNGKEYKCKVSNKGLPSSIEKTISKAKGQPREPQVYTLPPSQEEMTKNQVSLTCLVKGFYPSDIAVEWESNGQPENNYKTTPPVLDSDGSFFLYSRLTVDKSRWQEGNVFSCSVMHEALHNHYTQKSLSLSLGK
light: DIVLTQSPATLSLSPGERATLSCRASQSISNNLHWYQQKPGQAPRLLIRFASQSISGIPARFSGSGSGTDFTLTISSLEPEDFAVYFCQQSDNWPLTFGGGTKVEIKRTVAAPSVFIFPPSDEQLKSGTASVVCLLNNFYPREAKVQWKVDNALQSGNSQESVTEQDSKDSTYSLSSTLTLSKADYEKHKVYACEVTHQGLSSPVTKSFNRGEC
For the molecule B15, the IC50 in test [1] worked out at 1.43 nM. Also, the EC50 in test [2] worked out at 0.039 nM.

B16: AH00290 (antibody, human IgG4 S228P, kappa, V domains shown)
VH: EVNLVESGGGLVQPGGSLRLSCAASGFTFSSYGMSWVRQAPGKGLEWVSSISGGGRYTYYPDSMKGRFTISRDNSKNTLYLQMNSLRAEDTAVYYCVYEYFYTMDYWGQGTLVTVSS
VL: DIVLTQSPATLSLSPGERATLSCRANQSISNNLHWYQQKPGQAPRLLIRFASQSISGIPARFSGSGSGTDFTLTISSLEPEDFAVYFCQQSDNWPLTFGGGTKVEIKR
notes: also called humanized anti-human PD-1 monoclonal antibody AH00290
For B16, the IC50 in test [1] came to 1.09 nM. The EC50 in test [2] came to 0.024 nM.

B17: AH00293 (antibody, human IgG4 S228P, kappa, V domains shown)
VH: EVNLVESGGGLVQPGGSLRLSCAASGFTFSSYGMSWVRQAPGKGLEWVASISGGGRYTYYPDSMKGRFTISRDNSKNNLYLQMNSLRAEDTAVYYCVYEYFYTMDYWGQGTLVTVSS
VL: DIVLTQSPATLSLSPGERATLSCRANQSISNNLHWYQQKPGQAPRLLIRFASQSISGIPARFSGSGSGTDFTLTISSLEPEDFAVYYCQQSDNWPLTFGGGTKVEIKR
notes: also called humanized anti-human PD-1 monoclonal antibody AH00293
As for B17, the IC50 in test [1] stood at 1.2 nM. In addition, the EC50 in test [2] turned out to be 0.026 nM.
